{"source": "paper PMC3558466", "about": "“An Enzyme-Catalyzed Multistep DNA Refolding Mechanism in Hairpin Telomere Formation” (PLoS Biology, 2013)", "proteins": {"B1": {"name": "Selenomethionine-labeled TelA (enzyme, Agrobacterium tumefaciens C58, UniProt Q7CWV1 1-442, looked up)", "chain": "MLAAKRKTKTPVLVERIDQFVGQIKEAMKSDDASRNRKIRDLWDAEVRYHFDNGRTEKTLELYIMKYRNALKAEFGPKSTPLAICNMKKLRERLNTYIARGDYPKTGVATSIVEKIERAEFNTAGRKPTVLLRIADFIAAMNGMDAKQDMQALWDAEIAIMNGRAQTTIISYITKYRNAIREAFGDDHPMLKIATGDAAMYDEARRVKMEKIANKHGALITFENYRQVLKICEDCLKSSDPLMIGIGLIGMTGRRPYEVFTQAEFSPAPYGKGVSKWSILFNGQAKTKQGEGTKFGITYEIPVLTRSETVLAAYKRLRESGQGKLWHGMSIDDFSSETRLLLRDTVFNLFEDVWPKEELPKPYGLRHLYAEVAYHNFAPPHVTKNSYFAAILGHNNNDLETSLSYMTYTLPEDRDNALARLKRTNERTLQQMATIAPVSRKG", "modifications": "selenomethionine-labeled (eleven selenium sites per TelA monomer located)", "notes": "Protelomerase TelA, Agrobacterium tumefaciens C58, gene locus Atu_2523, full-length 442 residues; model covers residues 102-421; Phosphotyrosine complex trapped with the nicked suicide substrate DNAc; used for SAD phasing; also called SeMet-TelA; source: E. coli methionine auxotroph strain B834(DE3), selenomethionine-labeled; not shown: His-tag (20 residues), N-terminal, kept"}, "B2": {"name": "TelA, protelomerase from Agrobacterium tumefaciens C58, wild type (enzyme, UniProt Q7CWV1 1-442, looked up)", "chain": "B1 chain", "notes": "Protelomerase TelA, Agrobacterium tumefaciens C58, gene locus Atu_2523, full-length 442 residues; residues 102-421 ordered in the crystal models; In 4E0P and 4E0Y Tyr405 is joined to the cleaved DNA by a phosphotyrosine bond; in 4E0G orthovanadate bridges Tyr405 and the DNA ends; also called telomere resolvase; wild-type TelA; source: E. coli BL21, pBAD promoter, purified (Ni-NTA, …)"}, "B3": {"name": "TelA R255A (enzyme)", "chain": "B1 chain with R255A", "notes": "source: E. coli BL21, pBAD promoter, purified (Ni-NTA, Heparin-Sepharose)"}, "B4": {"name": "TelA Y201A (enzyme)", "chain": "B1 chain with Y201A", "notes": "Crystallised with DNAb; source: E. coli BL21, pBAD promoter, purified (Ni-NTA, Heparin-Sepharose)"}, "B5": {"name": "TelA R205A (enzyme)", "chain": "B1 chain with R205A", "notes": "Crystallised with DNAb6; source: E. coli BL21, pBAD promoter, purified (Ni-NTA, Heparin-Sepharose)"}}, "note": "Residue numbers refer to the chain shown, from its start."}
{"target": "the molecule itself", "test": "crystal structure; TelA-DNA complexes (equal moles of protein monomer and DNA half-site), hanging drop vapor diffusion at 20°C, 5% PEG 4000, 10 mM Tris-HCl pH 7.4, 300 mM NaCl; one TelA per asymmetric unit, the dimer is generated by the crystallographic dyad; TelA is bound to DNA"}
{"protein": "B1", "stoichiometry N": 2}
{"protein": "B2", "stoichiometry N": 2}
{"protein": "B3", "stoichiometry N": 2}
{"protein": "B4", "stoichiometry N": 2}
{"protein": "B5", "stoichiometry N": 2}
